Experimental data from patent US20240083996A1, “COMPOSITION FOR PROPHYLAXIS OR TREATMENT OF IL-8 RELATED DISEASES” (Chugai Seiyaku Kabushiki Kaisha, priority 2016, published 2024).

Legend:
[1] = system: soluble forms of FcγRIa and FcγRIIIa in human and cynomolgus monkey; experiment: Binding to various FcγRs (BIACORE T200); conditions: 20° C., HBS-EP+ (FIG. 27)
Method: Soluble FcγRIa and FcγRIIIa in both human and cynomolgus monkey were produced in the form of His-tagged molecules by methods known to those of ordinary skill in the art. […] Next, soluble FcγRIa or FcγRIIIa was injected with a running buffer (used as a reference solution), and was made to interact with the antibodies captured onto the sensor chip. HBS-EP+ (GE Healthcare) was used as the running buffer, and HBS-EP+ was also used to dilute the soluble FcγRIa or FcγRIIIa. […] All measurements were carried out at 20° C.

[2] = system: post-surgical adhesion; experiment: Adhesion after surgery (area surrounding the incision site) in surgically-induced endometriosis monkey models; type: in vivo, cynomolgus monkeys; conditions: 10 mg/kg; two months before versus six months after initiation of administration, five evaluators
Method: Specifically, adhesion to the area surrounding the incision site on the abdominal wall was compared before and after administration and evaluated by five evaluators on a three-point scale: (1) Improved, (2) Stable, and (3) Progressed. Ratings with a consensus among three or more of the five evaluators were adopted; otherwise (2) Stable was used. Evaluations were carried out on six monkeys in the vehicle group as well as seven monkeys in the antibody […]/[…]-[…] administration group. […] The monkey with “Progressed” was an individual in which the blood concentration of antibody […]/[…]-[…] had decreased due to anti-antibody production.

- binding to FcγRs (hFcγRIa, hFcγRIIIa, cynoFcγRIa, cynoFcγRIIIa) [1]: not to bind to any of the FcγRs
B1: H1009/L395-F1974m: H1009-F1974m (SEQ ID NO:36) heavy chain, L395-kOMT light chain; the anti-IL-8 antibody of Table 29 (antibody)
heavy: QVQLVESGGGLVQPGGSLRLSCAASGFTFSDYYLSWVRQAPGKGLEWVGLIRNKDNYHTPEYSASVKGRFTISRDDSKNSLYLTMSDLKTEDTAVYYCARENHRYDVELAYWGQGTLVTVSSASTKGPSVFPLAPSSKSTSGGTAALGCLVKDYFPEPVTVSWNSGALTSGVHTFPAVLQSSGLYSLSSVVTVPSSSLGTQTYICNVNHKPSNTKVDKKVEPKSCDKTHTCPPCPAPELRRGPSVFLFPPKPKDTLMISRTPEVTCVVVDVSHEDPEVKFNWYVDGVEVHNAKTKPREEQYNSTYRVVSVLTVLHQDWLNGKEYKCKVSNKGLPSSIEKTISKAKGQPREPQVYTLPPSREEMTKNQVSLTCLVKGFYPSDIAVEWESNGQPENNYKTTPPVLDSDGSFFLYSKLTVDKSRWQQGNVFSCSVLHEALHAHTTRKELSLSP
light: DIQMTQSPSSLSASVGDRVTITCRASEIIYSYLAWYQQKPGKAPKLLIYKAKTHADGVPSRFSGSGSGTDFTFTISSLQPEDIATYYCKHHFGFPRTFGQGTKVEIKRTVAAPSVFIFPPSDEQLKSGTASVVCLLNNFYPREAKVQWKVDNALQSGNSQESVTEQDSKDSTYSLSSTLTLSKADYEKHKVYACEVTHQGLSSPVTKSFNRGEC
- adhesion to the area surrounding the incision site: Improved (monkeys/group) [2]: 6/7
- adhesion to the area surrounding the incision site: Progressed (monkeys/group) [2]: 1/7
- adhesion to the area surrounding the incision site: Stable (monkeys/group) [2]: 0/7
